Changes are numbered by the printed parent chain. Blank lines part the entries; values can stand above or below the binder they belong to.
Tests used:
Assay in all cases: capture ELISA, alanine scan, vs silent alanine substitutions
[1] = molecular target: T1, hCTLA4_ECD.His point mutant G64 to alanine (human, UniProt P16410 36-161)
T1 construct: extracellular domain; alanine-scan mutein, HEK293F supernatant
T1 sequence (looked up): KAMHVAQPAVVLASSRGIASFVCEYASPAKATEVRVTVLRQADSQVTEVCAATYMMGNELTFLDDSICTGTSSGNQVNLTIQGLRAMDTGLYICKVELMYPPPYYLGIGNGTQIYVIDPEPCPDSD
Experimental: (§1) In order to test how the mutations affect antibody-binding, a capture ELISA was conducted. […] After interacting with the supernatant that contains quantified CTLA4 muteins, HRP conjugated anti-His antibody (1:5000; Rockland Immunochemicals, Pottstown, Pa.) was added as detection antibody. TMB was used as substance of HRP. Absorbance was normalized according to the average of control mutants. After setting an additional cutoff to the binding fold change (<0.55), the final determined epitope residues were identified.

[2] = molecular target: T2, hCTLA4_ECD.His point mutant T72 to alanine (human, UniProt P16410 36-161)
T2 construct: extracellular domain; alanine-scan mutein, HEK293F supernatant
T2 sequence (looked up): T1 sequence (looked up) with A29G, T37A
Experimental: as §1

[3] = molecular target: T3, hCTLA4_ECD.His point mutant V81 to alanine (human, UniProt P16410 36-161)
T3 construct: extracellular domain; alanine-scan mutein, HEK293F supernatant
T3 sequence (looked up): T1 sequence (looked up) with A29G, V46A
Experimental: as §1

[4] = molecular target: T4, hCTLA4_ECD.His point mutant M90 to alanine (human, UniProt P16410 36-161)
T4 construct: extracellular domain; alanine-scan mutein, HEK293F supernatant
T4 sequence (looked up): T1 sequence (looked up) with A29G, M55A
Experimental: as §1

[5] = molecular target: T5, hCTLA4_ECD.His point mutant L126 to alanine (human, UniProt P16410 36-161)
T5 construct: extracellular domain; alanine-scan mutein, HEK293F supernatant
T5 sequence (looked up): T1 sequence (looked up) with A29G, L91A
Experimental: as §1

[6] = molecular target: T6, hCTLA4_ECD.His point mutant Y127 to alanine (human, UniProt P16410 36-161)
T6 construct: extracellular domain; alanine-scan mutein, HEK293F supernatant
T6 sequence (looked up): T1 sequence (looked up) with A29G, Y92A
Experimental: as §1

[7] = molecular target: T7, hCTLA4_ECD.His point mutant I128 to alanine (human, UniProt P16410 36-161)
T7 construct: extracellular domain; alanine-scan mutein, HEK293F supernatant
T7 sequence (looked up): T1 sequence (looked up) with A29G, I93A
Experimental: as §1

[8] = molecular target: T8, hCTLA4_ECD.His point mutant K130 to alanine (human, UniProt P16410 36-161)
T8 construct: extracellular domain; alanine-scan mutein, HEK293F supernatant
T8 sequence (looked up): T1 sequence (looked up) with A29G, K95A
Experimental: as §1

[9] = molecular target: T9, hCTLA4_ECD.His point mutant E132 to alanine (human, UniProt P16410 36-161)
T9 construct: extracellular domain; alanine-scan mutein, HEK293F supernatant
T9 sequence (looked up): T1 sequence (looked up) with A29G, E97A
Experimental: as §1

[10] = molecular target: T10, hCTLA4_ECD.His point mutant I143 to alanine (human, UniProt P16410 36-161)
T10 construct: extracellular domain; alanine-scan mutein, HEK293F supernatant
T10 sequence (looked up): T1 sequence (looked up) with A29G, I108A
Experimental: as §1

[11] = molecular target: T11, hCTLA4_ECD.His point mutant G144 to alanine (human, UniProt P16410 36-161)
T11 construct: extracellular domain; alanine-scan mutein, HEK293F supernatant
T11 sequence (looked up): T1 sequence (looked up) with A29G, G109A
Experimental: as §1

[12] = molecular target: T12, hCTLA4_ECD.His point mutant N145 to alanine (human, UniProt P16410 36-161)
T12 construct: extracellular domain; alanine-scan mutein, HEK293F supernatant
T12 sequence (looked up): T1 sequence (looked up) with A29G, N110A
Experimental: as §1

[13] = molecular target: T13, hCTLA4_ECD.His point mutant Q148 to alanine (human, UniProt P16410 36-161)
T13 construct: extracellular domain; alanine-scan mutein, HEK293F supernatant
T13 sequence (looked up): T1 sequence (looked up) with A29G, Q113A
Experimental: as §1

Fold change [1]: 0.543 fold
B1: W3162_1.154.8-z35-uAb.IgG1K (antibody, V domains shown)
VH: QVQLVQSGAEVKKPGSSVKVSCKASGYTFTNYFMNWVRQAPGQGLEWMGRVDPEQGRADYAEKFKKRVTITADKSTSTAYMELSSLRSEDTAVYYCARRAMDNYGFAYWGQGTLVTVSS
VL: EIVLTQSPDFQSVTPKEKVTITCSANSALSYMYWYQQKPDQSPKLWVHGTSNLASGVPSRFSGSGSGTDFTLTINSLEAEDAATYYCHHWSNTQWTFGGGTKVEIK
notes: Humanized; label says IgG1K

Fold change [2]: 0.541 fold | Fold change [3]: 0.191 fold | Fold change [4]: 0.492 fold | Fold change [5]: 0.398 fold | Fold change [6]: 0.529 fold | Fold change [7]: 0.256 fold | Fold change [8]: 0.348 fold | Fold change [9]: 0.457 fold | Fold change [10]: 0.264 fold | Fold change [11]: 0.478 fold | Fold change [12]: 0.196 fold | Fold change [13]: 0.5 fold
B2: W3162-1.146.19-z12-uAb.IgG1K (antibody, V domains shown)
VH: QVQLQESGPGLVKPSETLSLTCSVTYHTITSGYDWTWIRKPPGKGMEWIGYISYSGNTNYNPSLKSRVTISRDTSKNQFFLKLSSVTAADTAVYYCASMMVPHYYVMDAWGQGTLVTVSS
VL: DIVMTQTPLSLSVTPGQPASISCRSSQSLLNSDGNTYLYWYLQKPGQSPQLLIYLVSKLGSGVPNRFSGSGSGTDFTLKISRVEAEDVGVYYCVQGTHDPWTFGGGTKVEIK
notes: Humanized; label says IgG1K

Reference: patent publication US20200277377A1 (WUXI BIOLOGICS SHANGHAI, published 2020)
